# In publication PMC1851628 (Nucleic Acids Research, 2007):
# Biological target: the molecule itself
# Test: AUC
protein,measurement,value
"RepB initiator protein of plasmid pMV158 (natural protein, UniProt P13921 1-210, looked up) MAKEKARYFTFLLYPESIPSDWELKLETLGVPMAISPLHDKDKSSIKGQKYKKAHYHVLYIAKNPVTADSVRKKIKLLLGEKSLAMVQVVLNVENMYLYLTHESKDAIAKKKHVYDKADIKLINNFDIDRYVTLDVEEKTELFNVVVSLIRAYTLQNIFDLYDFIDENGETYGLTINLVNEVIAGKTGFMKLLFDGAYQRSKRGTKNEER",stoichiometry N,6
